The supplement of paper PMC7877785
± gives the uncertainty stated by the source.

Assay: self-splicing fitness, log relative to wild type (ln ratio); higher = more splicing; Tetrahymena group I intron in knt gene, E. coli kanamycin selection, DiMSum; sequences stand for … in CUCUCU…GGAGGGAAAAGUUAUCAGGCAUGCACCUGGUAGCUAGUCUUUAAACCAAUAGAUUGCAUCGGUUUAAAAGGCAAGACCGUCAAAUUGCGGGAAAGGGGUCAACAGCCGUUCAGUACCAAGUCUCAGGGGAAACUUUGAGAUGGCCUUGCAAAGGGUAUGGUAAUAAGCUGACGGACAUGGUCCUAACCACGCAGCCAAGUCCUAAGUCAACAGAUCUUCUGUUGAUAUGGAUGCAGUUCACAGACUAAAUGUCGGUCGGGGAAGAUGUAUUCUUCUCAUAAGAUAUAGUCGGACCUCUCCUUAAUGGGAGCUAGCGGAUGAAGUGAUGCAACACUGGAGCCGCUGGGAACUAAUUUGUAUGCGAAAGUAUAUUGAUUAGUUUUGGAGUACUCGUGGUCG
Method in brief: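 The eight P1ex-region nucleotides of an intron in the knt kanamycin-resistance gene on pET-22b(+) were all randomised and the library put into E. coli BL21(DE3). Six replicate transformations were grown overnight at 37°C or 30°C on LB agar with or without 25 μg/mL kanamycin, together with 100 μg/mL carbenicillin, 50 μM IPTG and 0.2% rhamnose. Colonies were pooled and amplicon-sequenced on an Illumina HiSeq 2500. Fitness from DiMSum is the error-weighted combination of wild-type-normalised replicate fold changes, kanamycin over none.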

Sequence	self-splicing fitness (ln) (30 °C)	self-splicing fitness (ln) (37 °C)
GUACAGCAAUAUUACGGAAA	-2.77 ± 0.22	-2.72 ± 0.25
GUACAGCAAUAUUACGGAAC	-3.3 ± 0.19	-0.753 ± 0.17
GUACAGCAAUAUUACGGAGC	-3.06 ± 0.14	-2.17 ± 0.15
GUACAGCAAUAUUACGGAUU	-2.88 ± 0.11	-0.823 ± 0.084
GUACAGCAAUAUUACGGCAA	-1.59 ± 0.15	-1.32 ± 0.12
GUACAGCAAUAUUACGGUAC	-4.08 ± 0.43	-2.8 ± 0.26
GUACAGCAAUAUUACGGUCC	-0.203 ± 0.11	-0.766 ± 0.13
GUACAGCAAUAUUACGUAAU	-1.66 ± 0.087	-0.807 ± 0.11
GUACAGCAAUAUUACGUCUG	-2.04 ± 0.23	-2.09 ± 0.18
GUACAGCAAUAUUACGUGCC	-2.93 ± 0.13	-2.54 ± 0.22
GUACAGCAAUAUUACGUUCA	-1.51 ± 0.15	-0.775 ± 0.17
GUAGAGCAAUAUUACGAAAG	-1.56 ± 0.32	
GUAGAGCAAUAUUACGAAUG	-3.89 ± 0.3	-2.16 ± 0.21
GUAGAGCAAUAUUACGAGUA	-3.5 ± 0.28	-1.69 ± 0.29
GUAGAGCAAUAUUACGAGUG	-1.59 ± 0.18	-2.1 ± 0.21
GUAGAGCAAUAUUACGAUAU	-0.731 ± 0.088	0.237 ± 0.12
GUAGAGCAAUAUUACGCAUU	-2.45 ± 0.18	-0.619 ± 0.25
GUAGAGCAAUAUUACGCGUG	-1.18 ± 0.11	-0.777 ± 0.18
GUAGAGCAAUAUUACGCUAC	-2.54 ± 0.25	-2.15 ± 0.34
GUAGAGCAAUAUUACGCUUU	-2.36 ± 0.19	-2 ± 0.23

Sequence	self-splicing fitness (ln) (30 °C)	self-splicing fitness (ln) (37 °C)
GUAGAGCAAUAUUACGGAGA	-2.58 ± 0.3	
GUAGAGCAAUAUUACGGAUA		-0.969 ± 0.41
GUAGAGCAAUAUUACGGCCG	-0.867 ± 0.16	0.266 ± 0.21
GUAGAGCAAUAUUACGGCGA	-1.87 ± 0.13	-0.23 ± 0.16
GUAGAGCAAUAUUACGGGCU	-2.37 ± 0.3	-1.89 ± 0.41
GUAGAGCAAUAUUACGGUCG	-2.63 ± 0.19	-1.8 ± 0.19
GUAGAGCAAUAUUACGGUGA	-2.14 ± 0.13	-1.09 ± 0.2
GUAGAGCAAUAUUACGUAAA	-4.18 ± 0.36	-1.4 ± 0.27
GUAGAGCAAUAUUACGUCAU	-1.65 ± 0.1	-1.36 ± 0.11
GUAGAGCAAUAUUACGUCGU	-0.814 ± 0.084	-0.0553 ± 0.11
GUAGAGCAAUAUUACGUGAC	-2.42 ± 0.16	-1.31 ± 0.19
GUAGAGCAAUAUUACGUGCG	-1.13 ± 0.081	0.0284 ± 0.12
GUAGAGCAAUAUUACGUGGA		-3.25 ± 0.3
GUAGAGCAAUAUUACGUGUC	-1.68 ± 0.094	-0.37 ± 0.13
GUAUAGCAAUAUUACGAAUU	-3.2 ± 0.22	-1.13 ± 0.18
GUAUAGCAAUAUUACGACAC	0.143 ± 0.091	0.241 ± 0.12
GUAUAGCAAUAUUACGACAU	-0.233 ± 0.014	0.0814 ± 0.033
GUAUAGCAAUAUUACGCGAA	-2.01 ± 0.36	-0.808 ± 0.23
GUAUAGCAAUAUUACGCGAC	-2.49 ± 0.3	
